The RNAGym collection of RNA variant scans (doi:10.7554/elife.80360)

B1: Hairpin Ribozyme (parent)
chain: GUCCUCUUUCACGUGCGCGUGAAAGAGAGAAGUGAACCAGAGAAACACACGUUGUGGUAUAUUACCUGGUA

Variants of: B1
Test: self-cleavage, relative activity (ratio to wild type); higher = more cleavage; co-transcriptional

Variant | self-cleavage
GUCCUCUUUCACGUACACGUGAAAGAGAGAAGUGAACCAGAGAAACACACGUUGUGGUAUAUUACCUGGUA | 0.87
GUCCUCUUUCACGUACGCGUGAAAGUGAGAAGUGAACCAGAGAAACACACGUUGUGGUAUAUUACCUGGUA | 0.638
GUCCUCUUUCACGUACGCGUGAAAGGGAGAAGUGAACCAGAGAAACACACGUUGUGGUAUAUUACCUGGUA | 0.835
GUCCUCUUUCACGUAGGCGUGAAAGAGAGAAGUGAACCAGAGAAACACACGUUGUGGUAUAUUACCUGGUA | 1.04
GUCCUCUUUCACGUAAGCGUGAAAGAGAGAAGUGAACCAGAGAAACACACGUUGUGGUAUAUUACCUGGUA | 0.881
GUCCUCUUUCACGUACGCGUGAAAGAGAGAAGUCAACCAGAGAAACACACGUUGUGGUAUAUUACCUGGUA | 1.23
GUCCUCUUUCACGUACGCGUGAAAGAGAGAAGUGAACCAGAGAAACACACGUUGGGGUAUAUUACCUGGUA | 0.215
GUCCUCUUUCACGUACGCGUGAAAGAGAGAAGUGAACCAGAGAAACACACGUUGAGGUAUAUUACCUGGUA | 0.146
GUCCUCUUUCACGUACGCGUGAAAGAGAGAAGUGAACCAGAGAAACACACGAUGUGGUAUAUUACCUGGUA | 0.863
GUCCUCUUUCACGUCCGCGUGAAAGUGAGAAGUGAACCAGAGAAACACACGUUGUGGUAUAUUACCUGGUA | 0.777
GUCCUCUUUCACGUACGCGUGAAAGAGAGAAGUGAACCAAAGAAACACACGUUGUGGUAUAUUACCUGGUA | 0.306
GUCCUCUUUCACGUACGCGUGAAAGAGAGAAGUGAACCACAGAAACACACGUUGUGGUAUAUUACCUGGUA | 0.112
GUCCUCUUUCACGUACGCGUGAAAGAGAGAAGUGAACCAGAGAAACACACGUUGUGGUAUAUUACCUGGAA | 0.689
GUCCUCUUUCACGUACGCGUGAAAGAGAGAAGUGAACCAGAGAAACACACGUUGUGGUAUAUUACCUGGGA | 0.838
GUCCUCUUUCACGGGCGCGUGAAAGAGAGAAGUGAACCAGAGAAACACACGUUGUGGCAUAUUACCUGGUA | 0.881
GUCCUCUUUCACGUACGCGUGAAAGAGAGAAGUGAACCAGCGAAACACACGUUGUGGUAUAUUACCUGGUA | 1.08
GUCCUCUUUCACGUACGCGUGAAAGAGAGAAGUGAACCAGAGAAACACACGUUGUGGUAUAUUACGUGGUA | 0.0886
GUCCUCUUUCACGUACGCGUGAAAGAGAGAAGUGAACCAGAGAAACACACAUUGUGGUAUAUUACCUGGUA | 1.21
GUCCUCUUUCACGUACGCGUGAAAGAGAGAAGUGAACCAGAGAAACACACGUCGUGGUAUAUUACCUGGUA | 0.907
GUCCUCUUUCACGUACGCGUGAAAGAGAGAAGUGAUCCAGAGAAACACACGUUGUGGUAUAUUACCUGGUA | 0.673
GUCCUCUUUCACGUACGCGUGAAAGAGAGAAGUGAACCAGAGAAACUCACGUUGUGGUAUAUUACCUGGUA | 0.17
GUCCUCUUUCACGUACGCGUGAAAGAGAGAAGUGAACCAGAGAAACGCACGUUGUGGUAUAUUACCUGGUA | 0.124
GUCCUCUUUCACGUACGCGUGAAAGAGAGAAGUGAACCAGAGAAACACACGUUGUGGUAUAUUACCUGCUA | 0.31
GUCCUCUUUCACGUACGCGUGAAAGAGAGAAGUGAACCAGAGAAACACACGUUGUGCUAUAUUACCUGGUA | 0.101
GUCCUCUUUCACGUACGCGUGAAAGAGAGAAGUGAACCAGAGAAACACACGUUGUGAUAUAUUACCUGGUA | 0.167
GUCCUCUUUCACGGGCGCGUGAAAGAGAGAAGUGAACCAGAGAAACACACGUUGUGGUAGAUUACCUGGUA | 0.58

Variant | self-cleavage
GUCCUCUUUCACGGGCGCGUGAAAGAGAGAAGUGAACCAGAGAAACACACGUUGUGGUAAAUUACCUGGUA | 0.641
GUCCUCUUUCACGUCCGCGUGAAGGAGAGAAGUGAACCAGAGAAACACACGUUGUGGUAUAUUACCUGGUA | 0.892
GUCCUCUUUCACGUCCGCGUGAACGAGAGAAGUGAACCAGAGAAACACACGUUGUGGUAUAUUACCUGGUA | 1.15
GUCCUCUUUCACGUACGCGUUAAAGAGAGAAGUGAACCAGAGAAACACACGUUGUGGUAUAUUACCUGGUA | 0.841
GUCCUCUUUCACGUACGCGUGAAAGAGAGAAGUGAACCAGAGAAACACACGUUGUCGUAUAUUACCUGGUA | 0.172
GUCCUCUUUCACGUACGCGUGAAAGAGAGAAGUGAACCAGAGAAACACACGUUGUAGUAUAUUACCUGGUA | 0.135
GUCCUCUUUCACGUACGCGUGAAAGAGAGAAGUGAACCAGAGAAACACACGUUGUGGUAUAUUAUCUGGUA | 0.235
GUCCUCUUUCACGUACGCGUGAAAGAGAGAAGUGAACCAGAGAAACACACGUUGUGGUAUAUUAGCUGGUA | 0.326
GUCCUCUUUCACGUACGCGUGAAAGAGAGAAGUGAACCAGAGAAACACACGUUGUGGUGUAUUACCUGGUA | 0.111
GUCCUCUUUCACGUACGCGUGAAAGAGAGAAGUGAACUAGAGAAACACACGUUGUGGUAUAUUACCUGGUA | 0.44
GUCCUCUUUCACGUACGCGUGAAAGAGAGUAGUGAACCAGAGAAACACACGUUGUGGUAUAUUACCUGGUA | 0.109
GUCCUCUUUCACGUACGCGUGAAAGAGAGCAGUGAACCAGAGAAACACACGUUGUGGUAUAUUACCUGGUA | 0.141
GUCCUCUUUCACGUACGCGUGAAAGAGAGAAGUGAACCAGAGAAACAAACGUUGUGGUAUAUUACCUGGUA | 0.133
GUCCUCUUUCACGUACGCGUGAAAGAGAGAAGUGAACCAGAGAAACAUACGUUGUGGUAUAUUACCUGGUA | 0.0998
GUCCUCUUUCACGUACGCGUGAAAGAGAGAAGUGAACCAGAGAAACACACGUUGUGGUAGAUUACCUGGUA | 0.639
GUCCUCUUUCACGUACGCGUGAAAGAGAGAAGUGAACCAGAGCAACACACGUUGUGGUAUAUUACCUGGUA | 0.162
GUCCUCUUUCACGUACGCGUGAAAGAGAGAAGUGAACCAGAGAAACACACGUUGUGGUAUAUUGCCUGGUA | 0.528
GUCCUCUUUCACGUACGCGUGAAAGAGAGAAGUGAACCAGAGAAACACACGUUGUGGUAUACUACCUGGUA | 0.214
GUCCUCUUUCACGUACGCGUGAAAGAGAGAAGUGAACCAGAGAAACACACGUUGUGGCAUAUUACCUGGUA | 1.03
GUCCUCUUUCACGGGCGCGUGAAAGAGAGAAGUGAACCAGAGAAACACACGUUGUGGUAUAAUACCUGGUA | 0.209
GUCCUCUUUCACGUACGCGUGAAAGAGAGAAGUGAACCGGAGAAACACACGUUGUGGUAUAUUACCUGGUA | 0.287
GUCCUCUUUCACGUACGCGUGAUAGAGAGAAGUGAACCAGAGAAACACACGUUGUGGUAUAUUACCUGGUA | 0.846
GUCCUCUUUCACGUACGCGUGAAAGAGAGAAGUGAACCAGAGAAACACACGUUGUGGUAUCUUACCUGGUA | 0.161
GUCCUCUUUCACGUACGCGUGAAAGAGAGAAGUGAACCAGAGAAACACACGUUGUGGUAUUUUACCUGGUA | 0.283
GUCCUCUUUCACGUCCGCGUGAGAGAGAGAAGUGAACCAGAGAAACACACGUUGUGGUAUAUUACCUGGUA | 1.05
GUCCUCUUUCACGUACGCGUGAAAGAGAAAAGUGAACCAGAGAAACACACGUUGUGGUAUAUUACCUGGUA | 0.118

Variant | self-cleavage
GUCCUCUUUCACGUACGCGUGAAAGAGAGAAGUGAACCAGAGAGACACACGUUGUGGUAUAUUACCUGGUA | 0.139
GUCCUCUUUCACGUACGCCUGAAAGAGAGAAGUGAACCAGAGAAACACACGUUGUGGUAUAUUACCUGGUA | 0.856
GUCCUCUUUCACGUACGCAUGAAAGAGAGAAGUGAACCAGAGAAACACACGUUGUGGUAUAUUACCUGGUA | 0.898
GUCCUCUUUCACGUACGCUUGAAAGAGAGAAGUGAACCAGAGAAACACACGUUGUGGUAUAUUACCUGGUA | 0.942
GUCCUCUUUCACGUACGCGUGAAAUAGAGAAGUGAACCAGAGAAACACACGUUGUGGUAUAUUACCUGGUA | 0.573
GUCCUCUUUCACGUACGAGUGAAAGAGAGAAGUGAACCAGAGAAACACACGUUGUGGUAUAUUACCUGGUA | 1.09
GUCCUCUUUCACGUACGCGUGAAAGAGAGAAGUGAACCAGAGAAACACACGUUGUGGUAUAUUACCGGGUA | 0.234
GUCCUCUUUCACGUACGCGUGAAAGAGAGAAGUGAACCAGAGAAACACACGUUGUGGUAUAUUACCCGGUA | 0.24
GUCCUCUUUCACGGGCGCGUGAAAGAGAGAAGUGAACCAGAGAAACACACGUUGUGGUAUAUGACCUGGUA | 0.153
GUCCUCUUUCACGGGCGCGUGAAAGAGAGAAGUGAACCAGAGAAACACACGUUGUGGUAUAUCACCUGGUA | 0.175
GUCCUCUUUCACGUACGCGUGAAAGAUAGAAGUGAACCAGAGAAACACACGUUGUGGUAUAUUACCUGGUA | 0.373
GUCCUCUUUCACGUACGCGUGAAAGAGAGAAGUGAACCAGAGAAACACAGGUUGUGGUAUAUUACCUGGUA | 0.219
GUCCUCUUUCACGUACGCGUGAAAGAGAGAAGUGAACCAGAGAAACACAAGUUGUGGUAUAUUACCUGGUA | 0.28
GUCCUCUUUCACGUACGCGUGAAAGAGAGAAGUGAACCAGAGAAACACAUGUUGUGGUAUAUUACCUGGUA | 0.356
GUCCUCUUUCACGUACGCGUGAAAGAGAGAAGUGAACCAGAGAAACACACGUUGUGGUAUAUUACCUGGUU | 0.785
GUCCUCUUUCACGUACGCGUGAAAGAGAGAAGUGCACCAGAGAAACACACGUUGUGGUAUAUUACCUGGUA | 0.806
GUCCUCUUUCACGUACGCGUGAAAGAGAGAAGUGUACCAGAGAAACACACGUUGUGGUAUAUUACCUGGUA | 0.52
GUCCUCUUUCACGUACGCGUGUAAGAGAGAAGUGAACCAGAGAAACACACGUUGUGGUAUAUUACCUGGUA | 0.699
GUCCUCUUUCACGUACGCGUGGAAGAGAGAAGUGAACCAGAGAAACACACGUUGUGGUAUAUUACCUGGUA | 1.11
GUCCUCUUUCACGUACGCGUGCAAGAGAGAAGUGAACCAGAGAAACACACGUUGUGGUAUAUUACCUGGUA | 0.821
GUCCUCUUUCACGUACGCGUGAAAGAGAGAAGUGAACCAGAGAAACACACGUUAUGGUAUAUUACCUGGUA | 0.572
GUCCUCUUUCACGUACGCGUGAAAGAGAGAAGUGAACCAGAGAAACACACGUUCUGGUAUAUUACCUGGUA | 0.364
GUCCUCUUUCACGUACGCGUGAAAGAGAGAAGUGAACCAGAGAAACACCCGUUGUGGUAUAUUACCUGGUA | 0.0193
GUCCUCUUUCACGUACGCGUGAAAGAGAGAAGUGAACCAGAGAAAUACACGUUGUGGUAUAUUACCUGGUA | 0.147
